Assay results as given in the supplement of paper PMC10724198.
± gives the standard deviation of the averaged measurements.

Test system: Saccharomyces cerevisiae
Assay: protein stability index of tFT-peptide fusion (C-terminal peptide) (PSI (0-1 scale)); higher = more stable (slower turnover)
Details: genetic background: wild type; temperature: 30 C
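Note: PSI is a weighted mean of sequencing reads over stability bins, variants kept only with over 10 reads, mCherry proximal and sfGFP distal, peptide attached via GGGS linker.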

Row | Sequence | protein stability index
1 | PRRYPPPSPRTS | 0.704 ± 0.016
2 | PRSLSLLPPSSP | 0.734 ± 0.037
3 | PRSPPPPAQPFV | 0.705 ± 0.042
4 | PRSSPPPPPPPP | 0.681 ± 0.035
5 | PRSSSPPPRSPP | 0.669 ± 0.016
6 | PRTPPQQEPRRP | 0.709 ± 0.054
7 | PRVLPFPSFLFF | 0.657 ± 0.022
8 | PRVPSSPNPPPI | 0.805 ± 0.025
9 | PRWYVSFRTDDW | 0.709 ± 0.15
10 | PSALGYFRWAVG | 0.68 ± 0.042
11 | PSAPRPSPPALP | 0.855 ± 0.11
12 | PSAPSLPPFFPP | 0.644 ± 0.04
13 | PSDLFGIQQSLL | 0.764 ± 0.018
14 | PSEPGPPRVSTP | 0.647 ± 0.08
15 | PSFFLLRVFVPS | 0.524 ± 0.0061
16 | PSFSPLPLPSIV | 0.728 ± 0.039
17 | PSGAHLAHLLWL | 0.719 ± 0.053
18 | PSGGAVEGMGGE | 0.668 ± 0.059
19 | PSGHQAPEMQYL | 0.667 ± 0.022
20 | PSGSNPPRTIPT | 0.713 ± 0.017
21 | PSKLNLSRKPEC | 0.677 ± 0.018
22 | PSLFFLPPPPSP | 0.695 ± 0.0096
23 | PSLGLQAPTPCP | 0.679 ± 0.012
24 | PSLIRTPTTPSP | 0.69 ± 0.018
25 | PSLLSPTPPTTD | 0.711 ± 0.075
26 | PSLPPPPPRAFS | 0.649 ± 0.0028

Row | Sequence | protein stability index
27 | PSLSPAPLPGLP | 0.706 ± 0.042
28 | PSNLNASLASRV | 0.655 ± 0.015
29 | PSPALPVHPPLQ | 0.687 ± 0.011
30 | PSPARLFVSPSP | 0.649 ± 0.04
31 | PSPFPPPLPPHL | 0.767 ± 0.064
32 | PSPLCDFTRSSI | 0.659 ± 0.025
33 | PSPLLPAPRRPP | 0.684 ± 0.085
34 | PSPPASSPPLPL | 0.665 ± 0.02
35 | PSPPLPLPLLSV | 0.633 ± 0.029
36 | PSPPPAIFPFVS | 0.71 ± 0.059
37 | PSPPPHGLPRPA | 0.675 ± 0.06
38 | PSPPPLSPPTPR | 0.667 ± 0.016
39 | PSPPPPGLFPLP | 0.632 ± 0.044
40 | PSPPPRRPPAPP | 0.666 ± 0.017
41 | PSPPPSLLPTPP | 0.679 ± 0.063
42 | PSPPPTPPLICL | 0.697 ± 0.025
43 | PSPPSHRFPAIP | 0.697 ± 0.0081
44 | PSPRPPPPPPPP | 0.66 ± 0.025
45 | PSPRSFLSIRFL | 0.581 ± 0.013
46 | PSPTAPGPSIPP | 0.667 ± 0.049
47 | PSRPAHSPPVPP | 0.646 ± 0.02
48 | PSRSATRPFPLS | 0.707 ± 0.071
49 | PSRVPSSVPLAP | 0.6864 ± 0.0061
50 | PSSPPDLAFRPP | 0.6157 ± 0.0049
51 | PSSPPSLRLPPL | 0.701 ± 0.044
52 | PSSRPPPPPPPP | 0.698 ± 0.037

Row | Sequence | protein stability index
53 | PSSRRRLLPPPH | 0.71 ± 0.12
54 | PSSWGRFLRRRP | 0.7 ± 0.024
55 | PSVSPVRLPYLL | 0.687 ± 0.035
56 | PTAESFNVRKRD | 0.723 ± 0.086
57 | PTAPLIPTGGAP | 0.685 ± 0.029
58 | PTCALPKLLTHP | 0.796 ± 0.021
59 | PTDAFFGLCMDC | 0.68 ± 0.038
60 | PTGQEFYRGGTR | 0.6927 ± 0.0047
61 | PTGSHARRRPRR | 0.65 ± 0.023
62 | PTLLQPPPPSYP | 0.704 ± 0.048
63 | PTLPGEQPRSWQ | 0.6701 ± 0.0049
64 | PTMKLPLLSCAR | 0.602 ± 0.091
65 | PTPGSPPPPLHP | 0.706 ± 0.02
66 | PTPHHPPPHPGP | 0.726 ± 0.042
67 | PTPLLTQHPRRP | 0.72 ± 0.043
68 | PTPLRILFALTP | 0.611 ± 0.12
69 | PTPMLPNYPWSR | 0.7431 ± 0.0015
70 | PTPPHPTSPPPP | 0.693 ± 0.01
71 | PTPPPAFGFPPP | 0.688 ± 0.16
72 | PTPPTAAPAAPR | 0.714 ± 0.053
73 | PTPPVPPPRTLL | 0.667 ± 0.055
74 | PTPRPTRSPPPP | 0.689 ± 0.01
75 | PTPSLPCPDHPL | 0.693 ± 0.0098
76 | PTQPVPPRTPHY | 0.6698 ± 0.0051
77 | PTRAPVKPDQHP | 0.798 ± 0.072
78 | PTTTPPPTPITG | 0.76 ± 0.065

Row | Sequence | protein stability index
79 | PTTTRSKDKVQR | 0.738 ± 0.041
80 | PTTVPPGPTSVH | 0.755 ± 0.058
81 | PTVKVLSWLAGH | 0.703 ± 0.018
82 | PVASSPLLPSPS | 0.649 ± 0.061
83 | PVFDSRDRTFSH | 0.713 ± 0.042
84 | PVHPPAPHPSPP | 0.663 ± 0.037
85 | PVPCNYSPVIHL | 0.688 ± 0.029
86 | PVPKFKEPKIWW | 0.698 ± 0.021
87 | PVPPGYFLRSPP | 0.701 ± 0.032
88 | PVPRPSERSFLL | 0.7316 ± 0.0057
89 | PVPSYYHKPPPL | 0.704 ± 0.019
90 | PVRFGNCPSILS | 0.7725 ± 0.0012
91 | PVSCPPPPLHMS | 0.661 ± 0.013
92 | PVSNVFDLTGMT | 0.683 ± 0.021
93 | PVSPCSQRGIFV | 0.692 ± 0.01
94 | PVVFFSYPLPSF | 0.699 ± 0.019
95 | PWCTPVKRGTSM | 0.763 ± 0.056
96 | PWDGFGPYAPYP | 0.657 ± 0.081
97 | PWPLPLPPSSLP | 0.684 ± 0.018
98 | PWVNLFPCQINI | 0.639 ± 0.02
99 | PYAHTKGSLGML | 0.6352 ± 0.0013
100 | PYNLSSRPSTLL | 0.625 ± 0.053
101 | PYPVRSRPPAPA | 0.6726 ± 0.0039
